The values that follow come from paper PMC1885673 (Nucleic Acids Research, 2007).

The target in test [1] is T1, S. pombe Hop2-Mnd1 complex, purified, His-tagged (S. pombe, UniProt Q9HGK2;Q09739).
T1 sequence 1: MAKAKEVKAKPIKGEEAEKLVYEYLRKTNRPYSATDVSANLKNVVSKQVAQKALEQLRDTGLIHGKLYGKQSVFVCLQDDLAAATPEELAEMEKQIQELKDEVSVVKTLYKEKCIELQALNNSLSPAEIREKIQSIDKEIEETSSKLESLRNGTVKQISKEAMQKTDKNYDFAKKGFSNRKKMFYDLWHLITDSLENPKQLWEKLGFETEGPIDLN
T1 sequence 2: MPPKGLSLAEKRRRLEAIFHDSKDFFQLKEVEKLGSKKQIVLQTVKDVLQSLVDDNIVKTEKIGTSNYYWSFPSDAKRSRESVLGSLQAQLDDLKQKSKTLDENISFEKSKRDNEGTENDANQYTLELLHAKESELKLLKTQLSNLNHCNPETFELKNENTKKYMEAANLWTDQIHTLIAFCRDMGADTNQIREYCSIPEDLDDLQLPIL
Kind of test: pull-down.

Test [2] addresses T2, S. pombe Hop2 (Meu13), His-tagged, from pET28b, co-expressed and co-purified with Mnd1 (S. pombe, UniProt Q9HGK2 1-216).
T2 sequence: T1 sequence 1
As to the kind of experiment: co-elution in ion-exchange chromatography.

B1: S. pombe Dmc1, purified (natural protein)
chain: MEEFAEGNDDEQMIFSDIEDLTAHGIGMTDIIKLKQAGVCTVQGVHMSTKRFLLKIKGFSEAKVDKLKEAASKMCPANFSTAMEISQNRKKVWSISTGSEALNGILGGGIQSMSITEVFGEFRCGKTQMSHTLCVTAQLPRDMGGAEGKVAFIDTEGTFRPDRIKAIAERFGVDADQAMENIIVSRAYNSEQQMEYITKLGTIFAEDGQYRLLIVDSIMALFRVDYSGRGELSERQQKLNIMLARLNHISEEFNVAVFVTNQVQADPGAAMMFASNDRKPVGGHVMAHASATRLLLRKGRGEERVAKLNDSPDMPEAECSYVITPGGIADVS
Turning to B1, the binding result in test [1] was “binds”.

B2: S. pombe Rad51, purified (natural protein)
chain: MADTEVEMQVSAADTNNNENGQAQSNYEYDVNVQDEEDEAAAGPMPLQMLEGNGITASDIKKIHEAGYYTVESIAYTPKRQLLLIKGISEAKADKLLGEASKLVPMGFTTATEYHIRRSELITITTGSKQLDTLLQGGVETGSITELFGEFRTGKSQICHTLAVTCQLPIDMGGGEGKCLYIDTEGTFRPVRLLAVADRYGLNGEEVLDNVAYARAYNADHQLELLQQAANMMSESRFSLLVVDSCTALYRTDFSGRGELSARQMHLARFMRTLQRLADEFGIAVVITNQVVAQVDGISFNPDPKKPIGGNILAHSSTTRLSLRKGRGEQRICKIYDSPCLPESEAIFAINSDGVGDPKEIIAPV
Consider B2, for which the binding result in test [1] is “binds”.

B3: S. pombe Mnd1 (Mcp7), His-tagged, from pET16b, co-expressed and co-purified with Hop2 (natural protein)
chain: T1 sequence 2
With B3, the binding result in test [2] is “binds”.
